This is an account of results in the supplement of paper PMC12764529.

Series [1] in a line: folding stability dG unfold from chymotrypsin proteolysis; higher = more stable. The gist of the method:
(§1)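 Unfolding free energy was derived, per protease or combined, by relating Bayesian-fitted K50 values from sequencing counts to a sequence-predicted unfolded-state K50 and a shared folded-state K50. The underlying digests exposed cysteine-free mini-proteins under 80 residues, in a PA-tagged cDNA display construct, to trypsin and chymotrypsin at 11 threefold-diluted concentrations and to a no-protease condition. A filter kept only designs with AlphaFold2 dimer inter-PAE above 15.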

A short description of series [2]: folding stability dG unfold from trypsin proteolysis; higher = more stable. The gist of the method:
as §1

The nature of series [3]: folding stability dG unfold (combined trypsin and chymotrypsin); higher = more stable. The method, boiled down:
as §1

± gives the half width of the 95% confidence interval.

For the sequence “SAGGSAGGSAMEELVKEAIKEGKPGEVVLIRNEDGSVFALTVKDGKIEIKKLEEVKEVVEESAGGSAGGSAG [r3_244_TrROS_Hall]”, the “folding stability dG unfold” value came to 1.06 ± 0.093 kcal/mol in series [1], 1.45 ± 0.09 kcal/mol in series [2] and 1.15 ± 0.17 kcal/mol in series [3].
On the same counts, the results for “SAGGSAGGSAMEIEIEIEIPVPVPGGVPSPENPEVAEERAEEIKEKYAKEGLKVKVKITVVSAGGSAGGSAG [r3_258_JUSTAS]” are 1.13 ± 0.061 kcal/mol, 1.22 ± 0.21 kcal/mol and 1.07 ± 0.3 kcal/mol.
The matching figures for “SAGGSAGGSAMELVVKEVEYRGPLSLSIEEIAEEIEKKEGIKVIELEEYPDEKVKITIEKVSAGGSAGGSAG [r3_66_JUSTAS]”: 0.764 ± 0.12 kcal/mol, -0.463 ± 0.16 kcal/mol and 0.485 ± 0.19 kcal/mol.
The matching figures for “SAGGSAGGSAMITIKVSPDVPVPSNTPITLPNGKKVKATVTPVPSPEDGTPVLKITLDPNLISAGGSAGGSA [r18_476_JUSTAS]”: 0.891 ± 0.023 kcal/mol, -0.934 ± 0.24 kcal/mol and 0.446 ± 0.044 kcal/mol.
Consider “SAGGSAGGSAMITSDDLEKLLKKLGIDPKKLGPEKLAKIFKELYPDAIITADPEGKAYIYPSAGGSAGGSAG [r3_375_TrMRF]”, for which the “folding stability dG unfold” value in series [1] stood at 0.467 ± 0.19 kcal/mol; in series [2], 1.72 ± 0.07 kcal/mol; in series [3], 1.2 ± 0.14 kcal/mol.
On the same counts, the results for “SAGGSAGGSAMIVTEEGNTITITTLTNLTFPTTGATSTATTTTTITLPPTPLFPVPRTDNSLSAGGSAGGSA [r18_501_JUSTAS]” are 0.819 ± 0.12 kcal/mol, -0.21 ± 0.11 kcal/mol and 0.44 ± 0.24 kcal/mol.
Take “SAGGSAGGSAMKIKIEVVKNKNGYYYLKVEIEVNGKKIEITIKVPKNEKVSIEELLKKILKKSAGGSAGGSA [r18_111_TrROS_Hall]”: the entries for the “folding stability dG unfold” value in series [1], in series [2] and in series [3] were 4.55 ± 0.12 kcal/mol, 2.78 ± 0.12 kcal/mol and 4.07 ± 0.16 kcal/mol, respectively.
The matching figures for “SAGGSAGGSAMKKVTITLLDPRNGKEHTVTLPADITEEEAKAAAEAVAAERGWEVLSIEFEPSAGGSAGGSA [r18_322_JUSTAS]”: 3.43 ± 0.1 kcal/mol, 3.61 ± 0.072 kcal/mol and 3.57 ± 0.071 kcal/mol.
For “SAGGSAGGSAMKLKVPTKDGKVYEVTVVDYDPENEKVVVKNPDTDELYTFSLEDFKKILEANSAGGSAGGSA [r18_161_TrMRF]”, the “folding stability dG unfold” value in series [1] turned out to be 3.55 ± 0.08 kcal/mol; in series [2], 2.72 ± 0.17 kcal/mol; in series [3], 3.36 ± 0.12 kcal/mol.
Consider “SAGGSAGGSAMKTIEIDIVIKNKETGEYYKAKAKIFENEDGSLIIEIEFEKNGKTLLIVLPPSAGGSAGGSA [r18_426_TrROS_Hall]”, for which the “folding stability dG unfold” value in series [1] was 3.82 ± 0.11 kcal/mol; in series [2], 3.31 ± 0.096 kcal/mol; in series [3], 3.61 ± 0.2 kcal/mol.
In the case of “SAGGSAGGSAMKTIPVKTKEEAEKLAEELKASGYGEVKKTKSGNIIVKAPDGIDVKIVVPEKSAGGSAGGSA [r18_126_JUSTAS]”, the results for the “folding stability dG unfold” value in series [1], in series [2] and in series [3] were 0.712 ± 0.072 kcal/mol, 0.098 ± 0.068 kcal/mol and 0.574 ± 0.19 kcal/mol, respectively.
The matching figures for “SAGGSAGGSAMLIVGGADPEGAAEAAEEFIAAIEKAAEELGIPPEHIEIPVLIAEPGEAPGSAGGSAGGSAG [r3_249_TrMRF]”: 0.289 ± 0.052 kcal/mol, 1.19 ± 0.056 kcal/mol and 0.834 ± 0.12 kcal/mol.
As to “SAGGSAGGSAMLRIKIYYKKNGEEYEIEVEGSLEEALKEAAKKLGLSEDEIKKIEIEELPESAGGSAGGSAG [r3_79_TrROS_Hall]”, the figures for the “folding stability dG unfold” value in series [1], in series [2] and in series [3] were 3.73 ± 0.086 kcal/mol, 2.66 ± 0.12 kcal/mol and 3.41 ± 0.2 kcal/mol, respectively.
The matching figures for “SAGGSAGGSAMLRIRFENGLEIEIPKDMTLEELKKLAEELAEELKKEGKEVEVKIVEIEPVPSAGGSAGGSA [r18_213_TrROS_Hall]”: 2.21 ± 0.029 kcal/mol, 1.65 ± 0.044 kcal/mol and 2.03 ± 0.075 kcal/mol.
With “SAGGSAGGSAMLTKITITFEKPGTDETFTKPIDVPPDNPEEAIKAIKEELKKKGYKVKSVILSAGGSAGGSA [r18_3_JUSTAS]”, the figures for the “folding stability dG unfold” value in series [1], in series [2] and in series [3] were 1.73 ± 0.074 kcal/mol, 1.28 ± 0.078 kcal/mol and 1.57 ± 0.15 kcal/mol, respectively.
The matching figures for “SAGGSAGGSAMLYRITVRNADGEKLEIVVEMSEDEVRALAEELRKAGYEVRVEPIPEGEEPSAGGSAGGSAG [r3_35_TrROS_Hall]”: 4.79 ± 0.11 kcal/mol, 4.89 ± 0.21 kcal/mol and 4.8 ± 0.15 kcal/mol.
The matching figures for “SAGGSAGGSAMPKTTVYTIPYESDEEAEARIEEIKAEARARNPEAKVTVTPAGESVNVTIVGSAGGSAGGSA [r18_469_JUSTAS]”: -0.116 ± 0.19 kcal/mol, -0.7 ± 0.34 kcal/mol and -0.376 ± 0.2 kcal/mol.
On the same counts, the results for “SAGGSAGGSAMPLTSPEEAARHIKEALERLFPSSFPDRVIDPDVVVFTRPDGRVVALVKLKASAGGSAGGSA [r18_440_TrMRF]” are 1.27 ± 0.073 kcal/mol, 0.877 ± 0.023 kcal/mol and 1.11 ± 0.068 kcal/mol.
On to “SAGGSAGGSAMPVKVKVTVKARFGDKEFELEFEIEVGPGATEEDIKNLVTEKYPGFEEVELESAGGSAGGSA [r18_195_JUSTAS]”, for which the “folding stability dG unfold” value in series [1] was found to be 2.16 ± 0.11 kcal/mol; in series [2], 1.92 ± 0.083 kcal/mol; in series [3] it was 2.16 ± 0.12 kcal/mol.
The matching figures for “SAGGSAGGSAMQRDPDGKPQPQVTFRIPADDMPEEQIKKHLPPEFADNFRDNMPEGDTITLSAGGSAGGSAG [r3_326_TrROS]”: -0.105 ± 0.25 kcal/mol, -0.688 ± 0.19 kcal/mol and -0.239 ± 0.14 kcal/mol.
Take “SAGGSAGGSAMTFFVAVVKTETRVLPDGSLETRSSIEVKPVPAIPAEDLIKKLGLPLEDIASAGGSAGGSAG [r3_338_TrMRF]”: the “folding stability dG unfold” value in series [1] stood at 3.14 ± 0.053 kcal/mol; in series [2], 2.13 ± 0.041 kcal/mol; in series [3], 2.61 ± 0.14 kcal/mol.
“SAGGSAGGSAMTFKSPEEAKKAAEELEKKTGYKIKITKIEVNEDGEKTVKIEILPPGEKLKSAGGSAGGSAG [r3_59_TrROS_Hall]”: the “folding stability dG unfold” value is 0.544 ± 0.12 kcal/mol in series [1], -0.238 ± 0.092 kcal/mol in series [2] and 0.284 ± 0.1 kcal/mol in series [3].
Consider “SAGGSAGGSAMTIKVEVTVKVKVKLENGETKEKEVKVTVEIELPPLTKEELEKNKELLKKLLSAGGSAGGSA [r18_114_TrROS_Hall]”, for which the “folding stability dG unfold” value in series [1] was found to be 2.53 ± 0.08 kcal/mol; in series [2], 2.42 ± 0.14 kcal/mol; in series [3] it was 2.42 ± 0.16 kcal/mol.
With “SAGGSAGGSAMTPDETRTVVVEEELPNGEPVVRVTDVRTLPDGSLETLGERVITREELEERSAGGSAGGSAG [r3_212_JUSTAS]”, the “folding stability dG unfold” value in series [1] was 0.743 ± 0.064 kcal/mol; in series [2], -0.438 ± 0.2 kcal/mol; in series [3], 0.394 ± 0.11 kcal/mol.
“SAGGSAGGSAMTPEELLKAAEELAKKLNLKVEIEVKKNENGELTITVKVYKNGKLVKEFEIKSAGGSAGGSA [r18_369_TrROS_Hall]”: the “folding stability dG unfold” value in series [1] is 4.9 ± 0.11 kcal/mol; in series [2], 3.06 ± 0.089 kcal/mol; in series [3], 4.82 ± 0.16 kcal/mol.
The matching figures for “SAGGSAGGSAMTPETIKEKYPNVDYSPSPLGGKTVYTFTFPSGSTVTVTFNPGSATITTIAGSAGGSAGGSA [r18_13_JUSTAS]”: 3.38 ± 0.07 kcal/mol, 2.26 ± 0.13 kcal/mol and 2.96 ± 0.11 kcal/mol.
Turning to “SAGGSAGGSAMTVSIPPEVITSVEYDPSTNKVTITPSDGSVKTYDVESPEEVFKANNIGPESAGGSAGGSAG [r3_34_JUSTAS]”, the figures for the “folding stability dG unfold” value in series [1], in series [2] and in series [3] were 0.648 ± 0.11 kcal/mol, 0.887 ± 0.044 kcal/mol and 0.753 ± 0.095 kcal/mol, respectively.
In the case of “SAGGSAGGSAMTVTITHDVPPDVSVTVTVTSNNKKIPVSTPSRAASATIPSSEVSSLEIVPSSAGGSAGGSA [r18_170_JUSTAS]”, the “folding stability dG unfold” value in series [1] was 0.792 ± 0.043 kcal/mol; in series [2] it was -0.362 ± 0.29 kcal/mol; in series [3], 0.496 ± 0.12 kcal/mol.
On the same counts, the results for “SAGGSAGGSAMVIEDPKTNKLIEVEKLPDGTYKVTIYDKKTGEKKTITMSKKDLEKLLKALSAGGSAGGSAG [r3_162_TrROS_Hall]” are 4.78 ± 0.14 kcal/mol, 4.91 ± 0.44 kcal/mol and 4.81 ± 0.36 kcal/mol.
Turning to “SAGGSAGGSAMVILTPDGYLKVIKSITVEEALDPETDEPVLDVKAEVEVIPLPSLDDPAFKESAGGSAGGSA [r18_6_TrMRF]”, the results for the “folding stability dG unfold” value in series [1], in series [2] and in series [3] were 0.447 ± 0.087 kcal/mol, 0.251 ± 0.076 kcal/mol and 0.396 ± 0.24 kcal/mol, respectively.
On the same counts, the results for “SAGGSAGGSAMVRIEFENGLVAEFPSDLPLEEVKEKAVELAKLLSNDKKPVKVKILDIKEEGSAGGSAGGSA [r18_213_TrMRF]” are 0.763 ± 0.09 kcal/mol, 0.14 ± 0.15 kcal/mol and 0.407 ± 0.17 kcal/mol.
The matching figures for “SAGGSAGGSAMVVEIKPEKLPNGKYKVTVTITDPSTGKTTTTPYIVDPNKFTEEDIKKKLSSAGGSAGGSAG [r3_127_JUSTAS]”: 1.5 ± 0.077 kcal/mol, 1.37 ± 0.055 kcal/mol and 1.58 ± 0.098 kcal/mol.
Take “SAGGSAGGSANAKIPDGQKVTLDFRVMIMMRMWQFDENGGKMEPRMMMIPIEVEIEIKIPPNASAGGSAGGS [r12_668_TrROS]”: the “folding stability dG unfold” value stood at 5.06 ± 0.14 kcal/mol in series [1], 3.46 ± 0.1 kcal/mol in series [2] and 4.71 ± 0.14 kcal/mol in series [3].
For “SAGGSAGGSANYMIKITIEYTPPNGKKEEVEVTVPGMPIDQLLNNLPPEYPVEIKDIEIYPGSAGGSAGGSA [r18_32_TrROS]”, the “folding stability dG unfold” value in series [1] came out at 0.154 ± 0.12 kcal/mol; in series [2], 0.251 ± 0.024 kcal/mol; in series [3], 0.326 ± 0.11 kcal/mol.
On the same counts, the results for “SAGGSAGGSAPDIKILEPLEVDPDNGMITLKIELPGDGKVHEAIFFNPDGEPMMKFTIEIPKSAGGSAGGSA [r18_296_TrROS]” are 0.358 ± 0.31 kcal/mol, 0.219 ± 0.094 kcal/mol and 0.299 ± 0.3 kcal/mol.
For “SAGGSAGGSAPEVKIKVELFENENGELTATATIEVDGKLYKITVKFDKNGKIVEVKIEELPSAGGSAGGSAG [r3_165_TrROS_Hall]”, the “folding stability dG unfold” value in series [1] was 4.39 ± 0.27 kcal/mol; in series [2], 2.83 ± 0.22 kcal/mol; in series [3] it was 4.14 ± 0.45 kcal/mol.
